This note sets out measurements from the supplement of paper PMC11865577.

Experiment in all cases: pull-down binding Z-score (relative to library population); higher = stronger binding
Conditions in all cases: RNA library: Library-2

For data set [1], the system named is TO-3-N3 (biotin conjugate). A digest of the protocol: (§1)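 Biotin-conjugated small molecule (100 pmol) on streptavidin beads was incubated with 1 μg of heat-folded Cy5- or Cy3-end-labelled RNA library in phosphate/NaCl/KCl buffer at 25 °C for 60 min. Following three washes, RNA was eluted with hot SDS and hybridised at 55.5 °C for 20 h to a DNA barcode microarray. The binding value is a Z-score computed from the library mean and standard deviation, after subtraction of beads without compound and averaging of barcoded replicate probes with the highest and lowest excluded.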

In data set [2] the test system is TO-3-N3-2 (biotin conjugate). The essentials:
as §1

The test system of another data set is TO-N3 (biotin conjugate). A digest of the protocol: as §1
Data set [3] relates to TO-N3-2 (biotin conjugate). A digest of the protocol: as §1

“GGGAGCAAACCC [IAV_invivo_PB1_2_Motif_31+IAV_invivo_PB1_2_Motif_31]”: the “pull-down binding Z-score” value in data set [1] was -0.179; in data set [2], -0.259; in the data set with TO-N3 (biotin conjugate), -0.425; in data set [3], 0.11.
As for “GUUCUCAGUACAGAGAAAUCUCCCUUUUGACAGAACAACCAUUAUGGCAGCAUUCAAUGGGAAUACAGAGGGGAGAACAUCUGACAUGAGGAC [IAV_invivo_NP_5_Motif_22+IAV_invivo_NP_5_Motif_22]”, the “pull-down binding Z-score” value in data set [1] was 0.104; in data set [2], -0.129; with TO-N3 (biotin conjugate), 1.12; in data set [3] it was 1.23.
Regarding GCACACUAGAACCAGAAUAUUUCAAUUCAGUGUGU, the “pull-down binding Z-score” value in data set [1] was -0.957; in data set [2], -0.413; with TO-N3 (biotin conjugate), -1.2; in data set [3] it was -1.18.
For “UCCUUUGACAUGAGUAAUGAAGGAUCUUAUUUCUUCGGAGACAAUGCAGAGGA [IAV_invivo_NP_5_Motif_26+IAV_invivo_NP_5_Motif_26]”, the “pull-down binding Z-score” value in data set [1] was -0.638; in data set [2], -0.286; in the data set on TO-N3 (biotin conjugate) it was -0.711; in data set [3], -0.0358.
For the sequence “CGGGGCGGGAGGGGAAGGGACGCCCG [hsa-mir-6850]”, the “pull-down binding Z-score” value in data set [1] stood at 6.93; in data set [2], 7.75; in the data set with TO-N3 (biotin conjugate), 6.39; in data set [3], 5.1.
In the case of “GCCAUUGCCGGU [IAV_invivo_HA_4_Motif_15+IAV_invivo_HA_4_Motif_15]”, the “pull-down binding Z-score” value in data set [1] was -0.443; in data set [2], -0.49; in the data set with TO-N3 (biotin conjugate) it was -0.593; in data set [3] it was -0.0811.
With “GUACAUGGGCACACUUUCUUAUGAACAAUUUAAGAAAGGUGUUCAGAUAC [DMSMaPseq_invitro_SARS-CoV-2_Motif_106]”, the “pull-down binding Z-score” value in data set [1] was -0.377; in data set [2], 0.0305; in the data set on TO-N3 (biotin conjugate), -0.353; in data set [3], -0.639.
The corresponding values for “AUUAUGAGGACUUUUAAAGUUUCCAUUUGGAAUCUUGAUUACAUCAUAAACCUCAUAAU” are -1.1, -0.377, -1.39 and -1.25.
As to “CAACAAUGUGUGAUAUCAGACAACUACUAUUUGUAGUUGAAGUUGUUG”, the “pull-down binding Z-score” value in data set [1] is -0.133; in data set [2], 0.0207; with TO-N3 (biotin conjugate) it was -0.104; in data set [3], -0.217.
Turning to “GGGACUUAUGAUUAUCCC [IAV_invivo_HA_4_Motif_18+IAV_invivo_HA_4_Motif_18]”, the “pull-down binding Z-score” value in data set [1] was 0.293; in data set [2] it was 0.126; with TO-N3 (biotin conjugate), -0.122; in data set [3], -0.911.
On to “AAAUUUUUGGCUUUGUGUGCUGACUCUAUCAUUAUUGGUGGAGCUAAACUUAAAGCCUUGAAUUU [SHAPE_invivo_SARS-CoV-2_Motif_45]”, for which the “pull-down binding Z-score” value in data set [1] was 0.0535; in data set [2], -0.123; in the data set with TO-N3 (biotin conjugate) it was -0.00867; in data set [3], -0.994.
Consider “GUUAUGUUGAUACACCUAAU [DMSMaPseq_invitro_SARS-CoV-2_Motif_328]”, for which the “pull-down binding Z-score” value in data set [1] was -0.598; in data set [2], -0.132; in the data set on TO-N3 (biotin conjugate) it was -0.585; in data set [3], -0.329.
With “GGGCCACUGCCAGAAGACAAUGAACCAAGUGGUUAUGCCC [IAV_invivo_PB1_2_Motif_5+IAV_invivo_PB1_2_Motif_5]”, the “pull-down binding Z-score” value in data set [1] is -0.323; in data set [2], 0.0011; in the data set with TO-N3 (biotin conjugate) it was 0.0266; in data set [3], 0.713.
For GCGCUGCCAGAAACUGGCGGAGCGC [bulge-GG], the “pull-down binding Z-score” value was -0.714 in data set [1], -0.672 in data set [2], -0.873 in the data set with TO-N3 (biotin conjugate) and -0.22 in data set [3].
For “GGGGUGUACAUCAAUACUGCCUU [IAV_invivo_PA_3_Motif_19+IAV_invivo_PA_3_Motif_19]”, the “pull-down binding Z-score” value in data set [1] amounted to 1.11; in data set [2] it was 0.332; in the data set on TO-N3 (biotin conjugate) it was 1.4; in data set [3], 0.595.
Regarding UCUCUAAUGAGA, the “pull-down binding Z-score” value is -0.823 in data set [1], -0.652 in data set [2], -1.38 in the data set on TO-N3 (biotin conjugate) and -1.53 in data set [3].
Take “CUGGACUCUAAAUAGAAACCAACCUGCUGCAACAGCAUUGGCCAACACAAUAGAAGUGUUCAGAUCAAAUGGCCUCACGGCCAAUGAGUCUGG”: the “pull-down binding Z-score” value in data set [1] was -0.791; in data set [2], -0.486; in the data set on TO-N3 (biotin conjugate), -0.231; in data set [3] it was 0.269.
As to “CACUGUACAGUCUAAAAUGUCAGAUGUAAAGUG [DMSMaPseq_invitro_SARS-CoV-2_Motif_208]”, the “pull-down binding Z-score” value in data set [1] is -0.25; in data set [2] it was -0.0983; with TO-N3 (biotin conjugate), -0.414; in data set [3], -0.645.
AAGGAUGCUACUCCUU: the “pull-down binding Z-score” value in data set [1] was -0.922; in data set [2] it was -0.789; in the data set with TO-N3 (biotin conjugate), -1.32; in data set [3] it was -1.36.
The corresponding values for “AUAACAAUACUAGAUGGAAUUUCACAGUAUUCACUGAGACUCAUUGAUGCUAUGAUGUUCACAUCUGAUUUGGCUACUAACAAUCUAGUUGU” are 0.311, 0.176, 0.384 and -0.351.
As for GUGCCACUCCAUGGCAC, the “pull-down binding Z-score” value was 0.641 in data set [1], -0.276 in data set [2], 0.324 in the data set with TO-N3 (biotin conjugate) and -0.862 in data set [3].
“CCAAGACAUGUGAUCUGCACCUCUGAAGACAUGCUUAACCCUAAUUAUGAAGAUUUACUCAUUCGUAAGUCUAAUCAUAAUUUCUUGG [DMSMaPseq_invitro_SARS-CoV-2_Multi_33_ComplexLevel_1]”: the “pull-down binding Z-score” value in data set [1] was 0.403; in data set [2] it was -0.101; in the data set on TO-N3 (biotin conjugate), 0.332; in data set [3], 0.229.
The like results for “AUCACUAGGUUUCAAACUUUACUUGCUUUACAUAGAAGUUAUUUGACUCCUGGUGAU” were, in that order, -0.735, -0.375, -0.884 and -1.03.
In the case of “GUUUUUCUGUUUGGAACUUUAAUUUUAGCCAUGGCAGAUUCCAACGGUACUAUUACCGUUGAAGAGCUUAAAAAGCUCCUUGAAC”, the “pull-down binding Z-score” value is -0.86 in data set [1], -0.23 in data set [2], -0.856 with TO-N3 (biotin conjugate) and -0.41 in data set [3].
